Laboratory results from IntAct's records for PubMed 23395371.

B1: Ras-related protein Rab-7L1 (Rattus norvegicus (Rat)), Q63481 (parent)
chain: MGSRDHLFKVLVVGDAAVGKTSLVQRYSQDSFSKHYKSTVGVDFALKVLQWSDSEMVRLQLWDIAGQERFTSMTRLYYRDASACVIMFDVTNATTFSNSQRWKQDLDSKLTLPSGEPVPCLLLANKSDLSPWAVSRDQIDRFSKENGFTGWTETSVKENKNINEAMRVLVEKMMNNSREDIMSSSTQGNYINLQTKPSPGWTCC

Variants of: B1
Conditions: with lrrk2_human LRRK2, Q5S007
Chain of lrrk2_human LRRK2, Q5S007 (Q5S007 whole entry): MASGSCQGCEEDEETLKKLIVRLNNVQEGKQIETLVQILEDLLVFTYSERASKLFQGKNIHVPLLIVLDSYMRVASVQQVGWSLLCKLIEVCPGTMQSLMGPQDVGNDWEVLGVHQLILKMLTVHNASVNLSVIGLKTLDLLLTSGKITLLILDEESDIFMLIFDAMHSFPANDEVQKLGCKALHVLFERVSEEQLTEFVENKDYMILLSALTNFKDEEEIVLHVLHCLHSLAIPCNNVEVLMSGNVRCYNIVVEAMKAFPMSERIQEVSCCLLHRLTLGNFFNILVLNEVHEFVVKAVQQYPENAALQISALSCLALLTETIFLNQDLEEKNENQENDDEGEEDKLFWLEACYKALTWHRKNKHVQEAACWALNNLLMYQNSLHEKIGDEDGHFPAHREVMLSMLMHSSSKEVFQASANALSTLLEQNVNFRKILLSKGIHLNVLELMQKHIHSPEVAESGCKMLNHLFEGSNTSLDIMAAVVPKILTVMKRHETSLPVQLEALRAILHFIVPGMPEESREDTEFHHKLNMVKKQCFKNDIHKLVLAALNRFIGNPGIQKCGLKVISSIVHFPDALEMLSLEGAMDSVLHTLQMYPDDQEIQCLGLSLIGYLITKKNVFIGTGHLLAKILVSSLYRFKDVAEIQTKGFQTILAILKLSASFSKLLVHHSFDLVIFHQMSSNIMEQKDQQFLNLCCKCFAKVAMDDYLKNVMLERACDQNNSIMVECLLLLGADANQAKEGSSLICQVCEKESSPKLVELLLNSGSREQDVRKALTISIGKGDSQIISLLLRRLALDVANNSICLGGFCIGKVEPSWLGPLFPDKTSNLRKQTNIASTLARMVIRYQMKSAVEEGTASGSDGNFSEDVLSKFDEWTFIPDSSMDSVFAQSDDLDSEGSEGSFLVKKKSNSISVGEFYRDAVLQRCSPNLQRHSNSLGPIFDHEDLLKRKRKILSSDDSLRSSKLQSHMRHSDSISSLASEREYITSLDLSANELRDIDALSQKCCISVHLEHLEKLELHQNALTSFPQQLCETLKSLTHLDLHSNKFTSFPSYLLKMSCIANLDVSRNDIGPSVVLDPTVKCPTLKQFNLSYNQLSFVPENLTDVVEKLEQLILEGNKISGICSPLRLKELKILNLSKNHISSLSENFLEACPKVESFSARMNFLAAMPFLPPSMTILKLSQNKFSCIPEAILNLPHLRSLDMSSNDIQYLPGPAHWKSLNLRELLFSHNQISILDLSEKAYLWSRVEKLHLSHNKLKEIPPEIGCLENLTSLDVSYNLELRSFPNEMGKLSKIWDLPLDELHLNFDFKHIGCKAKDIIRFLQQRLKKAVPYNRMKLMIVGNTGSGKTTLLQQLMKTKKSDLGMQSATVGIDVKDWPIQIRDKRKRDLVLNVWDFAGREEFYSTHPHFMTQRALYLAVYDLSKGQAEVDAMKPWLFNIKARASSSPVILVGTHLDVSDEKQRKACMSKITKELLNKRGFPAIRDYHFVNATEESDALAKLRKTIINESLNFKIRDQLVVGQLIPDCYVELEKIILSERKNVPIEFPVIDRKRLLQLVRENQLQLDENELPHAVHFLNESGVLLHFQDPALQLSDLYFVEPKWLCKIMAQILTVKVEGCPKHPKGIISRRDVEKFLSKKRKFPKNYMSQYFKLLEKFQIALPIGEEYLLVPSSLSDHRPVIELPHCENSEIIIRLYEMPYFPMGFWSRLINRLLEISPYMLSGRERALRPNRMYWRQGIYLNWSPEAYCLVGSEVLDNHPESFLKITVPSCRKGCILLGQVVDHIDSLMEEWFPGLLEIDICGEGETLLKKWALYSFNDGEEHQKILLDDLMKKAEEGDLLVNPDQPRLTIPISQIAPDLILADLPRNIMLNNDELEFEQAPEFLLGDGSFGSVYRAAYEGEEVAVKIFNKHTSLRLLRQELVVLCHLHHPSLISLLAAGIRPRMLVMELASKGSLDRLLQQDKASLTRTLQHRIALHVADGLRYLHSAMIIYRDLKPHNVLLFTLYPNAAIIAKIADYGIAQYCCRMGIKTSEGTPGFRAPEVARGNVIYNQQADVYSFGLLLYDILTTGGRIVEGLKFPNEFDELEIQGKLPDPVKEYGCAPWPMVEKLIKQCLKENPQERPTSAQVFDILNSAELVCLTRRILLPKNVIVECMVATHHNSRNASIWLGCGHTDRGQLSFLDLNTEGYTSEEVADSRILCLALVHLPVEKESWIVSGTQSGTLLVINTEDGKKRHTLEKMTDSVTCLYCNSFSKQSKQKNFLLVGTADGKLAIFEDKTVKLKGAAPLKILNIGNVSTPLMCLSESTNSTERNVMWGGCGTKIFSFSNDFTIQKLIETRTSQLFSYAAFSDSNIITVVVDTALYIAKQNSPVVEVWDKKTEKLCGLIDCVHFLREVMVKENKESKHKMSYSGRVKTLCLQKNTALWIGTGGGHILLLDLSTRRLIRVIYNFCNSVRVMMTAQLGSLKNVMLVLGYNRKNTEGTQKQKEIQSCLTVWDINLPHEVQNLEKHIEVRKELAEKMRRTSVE
With MGSRDHLFKVLVVGDAAVGKTSLVQRYSQDSFSKHYKSTVGVDFALKVLQWSDSEMVRLQLWDIAGLERFTSMTRLYYRDASACVIMFDVTNATTFSNSQRWKQDLDSKLTLPSGEPVPCLLLANKSDLSPWAVSRDQIDRFSKENGFTGWTETSVKENKNINEAMRVLVEKMMNNSREDIMSSSTQGNYINLQTKPSPGWTCC [Q67L] the “effect of a mutation on the interaction” value was “decreasing interaction”.
In the case of MGSRDHLFKVLVVGDAAVGKNSLVQRYSQDSFSKHYKSTVGVDFALKVLQWSDSEMVRLQLWDIAGQERFTSMTRLYYRDASACVIMFDVTNATTFSNSQRWKQDLDSKLTLPSGEPVPCLLLANKSDLSPWAVSRDQIDRFSKENGFTGWTETSVKENKNINEAMRVLVEKMMNNSREDIMSSSTQGNYINLQTKPSPGWTCC [T21N], the “effect of a mutation on the interaction” value is reported as “decreasing interaction”.
